{"source": "paper PMC8050843", "target": "Ndc80C-GFP (S. cerevisiae Ndc80 complex with GFP at the C terminus of Spc24) (S. cerevisiae) (UniProt P40460)", "sequence (P40460 whole entry, chain 1 of 4)": "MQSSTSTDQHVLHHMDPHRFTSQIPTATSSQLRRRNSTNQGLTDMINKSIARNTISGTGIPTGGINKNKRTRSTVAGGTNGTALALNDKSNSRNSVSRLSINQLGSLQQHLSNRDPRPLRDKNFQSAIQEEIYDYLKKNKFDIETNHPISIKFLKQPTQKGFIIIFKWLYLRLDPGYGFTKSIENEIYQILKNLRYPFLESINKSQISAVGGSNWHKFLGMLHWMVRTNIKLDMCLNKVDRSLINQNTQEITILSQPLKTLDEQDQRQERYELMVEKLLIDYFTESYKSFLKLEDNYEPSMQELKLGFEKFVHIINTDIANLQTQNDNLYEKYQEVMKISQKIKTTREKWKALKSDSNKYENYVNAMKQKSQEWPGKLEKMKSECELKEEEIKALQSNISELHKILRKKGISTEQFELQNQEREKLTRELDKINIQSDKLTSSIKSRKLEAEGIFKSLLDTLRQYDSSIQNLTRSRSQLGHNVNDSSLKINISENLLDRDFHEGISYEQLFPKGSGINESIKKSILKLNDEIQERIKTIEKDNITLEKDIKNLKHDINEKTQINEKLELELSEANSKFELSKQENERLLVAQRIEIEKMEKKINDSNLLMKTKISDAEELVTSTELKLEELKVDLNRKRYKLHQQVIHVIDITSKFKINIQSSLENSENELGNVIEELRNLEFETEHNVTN", "sequence (P33895 whole entry, chain 2 of 4, further chain)": "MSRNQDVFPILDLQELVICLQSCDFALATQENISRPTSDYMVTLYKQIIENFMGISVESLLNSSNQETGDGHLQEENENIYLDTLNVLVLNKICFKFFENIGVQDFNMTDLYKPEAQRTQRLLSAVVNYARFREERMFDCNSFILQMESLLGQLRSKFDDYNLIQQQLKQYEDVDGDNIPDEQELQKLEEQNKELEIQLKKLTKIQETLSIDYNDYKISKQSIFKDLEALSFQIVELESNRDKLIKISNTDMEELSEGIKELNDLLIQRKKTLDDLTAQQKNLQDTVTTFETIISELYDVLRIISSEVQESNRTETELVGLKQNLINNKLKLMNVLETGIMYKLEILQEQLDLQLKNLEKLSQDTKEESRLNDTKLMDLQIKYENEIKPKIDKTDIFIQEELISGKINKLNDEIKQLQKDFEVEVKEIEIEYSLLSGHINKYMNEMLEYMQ", "sequence (Q04477 whole entry, chain 3 of 4, further chain)": "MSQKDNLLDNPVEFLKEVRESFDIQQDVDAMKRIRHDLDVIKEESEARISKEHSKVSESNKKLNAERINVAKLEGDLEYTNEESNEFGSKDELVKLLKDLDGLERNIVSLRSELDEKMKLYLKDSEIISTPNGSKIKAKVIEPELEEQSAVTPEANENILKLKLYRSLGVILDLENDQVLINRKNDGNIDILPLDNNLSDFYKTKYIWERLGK", "sequence (P40014 whole entry, chain 4 of 4, further chain)": "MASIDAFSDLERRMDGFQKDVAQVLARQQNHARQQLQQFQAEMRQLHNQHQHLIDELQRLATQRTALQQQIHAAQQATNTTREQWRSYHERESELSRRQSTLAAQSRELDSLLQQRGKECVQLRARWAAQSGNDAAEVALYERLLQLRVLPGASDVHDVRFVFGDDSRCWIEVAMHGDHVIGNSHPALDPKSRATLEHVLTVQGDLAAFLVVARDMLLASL", "data": [{"substance": "Dam1C (S. cerevisiae Dam1 complex, without GFP) (from UniProt P53267 1-343; Q12248 1-94; P36131 1-295)", "values": [{"measurement": "detachment of the Ndc80C nanobead from the MT plus end following transient end-on attachment (end-on drop-off) in the absence of Dam1C, against its presence", "result": 31, "unit": "%"}]}]}
